To fix the notation:
B1: TRAF3IP2 (parent)
chain: APWNYHYHCPGSPDHQVPYGHDYP

Drawing on the supplement of paper PMC10567573, this text covers protein stability index for 94 variants.
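Note: lentivirally expressed fusions sorted by FACS into six bins by GFP to DsRed ratio, PSI derived from sequencing read proportions per bin multiplied by bin number.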

This series covers variants of B1. Kind of series: protein stability index of a GFP-peptide fusion (GPS, HEK-293T) (PSI 1-6); higher = more stable. As to conditions: c terminus: a fixed tail appended.
In the case of APWNYHYHCPGSPDHQVPPGHDYP, the protein stability index is 2.51.
In the case of APWNYHYHCPGSPDHQVPLGHDYP, the protein stability index was 2.46.
APWNYHYHCPGSPDHQVPTGHDYP: the protein stability index worked out at 2.85.
Turning to APWNYHYHCPGSPDHQVPNGHDYP, the protein stability index came out at 2.48.
As for APWNYHYHCPGSPDHQVPVGHDYP, the figure is 2.7; as for APWNYHYHCPGSPDHQVPWGHDYP, 1.82.
As for APWNYHYHCPGSPDHQVPCGHDYP, the figure is 1.91; as for APWNYHYHCPGSPDHQVPGGHDYP, 2.41; as for APWNYHYHCPGSPDHQVPFGHDYP, 1.87.
Take APWNYHYHCPGSPDHQVPHGHDYP: the protein stability index amounted to 2.85.
As to APWNYHYHCPGSPDHRVPYGHDYP, the protein stability index turned out to be 2.02.
Take APWNYHYHCPGSPDHEVPYGHDYP: the protein stability index is 2.6.
As for APWNYHYHCPGSPDHNVPYGHDYP, the figure is 2.54; as for APWNYHYHCPGSPDHYVPYGHDYP, 2.09.
For APWNYHYHCPGSPDHWVPYGHDYP, the protein stability index was determined as 1.68.
As for APWNYHYHCPGSPDHPVPYGHDYP, the protein stability index was determined as 2.
APWNYHYHCPGSPDHGVPYGHDYP: the protein stability index turned out to be 1.81.
Consider APWNYHYHCPGSPDHCVPYGHDYP, for which the protein stability index came out at 2.07.
Consider APWNYHYHCPGSPDHKVPYGHDYP, for which the protein stability index stood at 2.15.
As for APWNYHYHCPGSPDHQVPYGEDYP, the figure is 2.55; as for APWNYHYHCPGSPDHQVPYGNDYP, 2.39; as for APWNYHYHCPGSPDHQVPYGWDYP, 2.69.
As for APWNYHYHCPGSPDHQVPYGYDYP, the figure is 2.35; as for APWNYHYHCPGSPDHQVPYGPDYP, 2.48; as for APWNYHYHCPGSPNHQVPYGHDYP, 2.11.
Regarding APWNYHYHCPGSPMHQVPYGHDYP, the protein stability index was found to be 1.84.
As for APWNYHYHCPGSPQHQVPYGHDYP, the figure is 2.46.
As for APWNYHYHCPGSPRHQVPYGHDYP, the figure is 1.91.
Take APWNYHYHCPGSPHHQVPYGHDYP: the protein stability index came to 2.25.
As to APWNYHYHCPGSPKHQVPYGHDYP, the protein stability index amounted to 2.
As for APWNYHYHCPGSPIHQVPYGHDYP, the figure is 2.08.
For APWNYHYHCPGSPDHQVPYGHNYP, the protein stability index amounted to 1.36.
As for APWNYHYHCPGSPDHQVPYGHAYP, the protein stability index is 1.72.
As for APWNYHYHCPGSPDHQVPYGHLYP, the figure is 1.9; as for APWNYHYHCPGSPDHQVPYGHVYP, 1.6; as for APWNYHYHCPGSPDHQVPYGHSYP, 2.33.
With APWNYHYHCPGSPDHQVPYGHCYP, the protein stability index amounted to 1.41.
APWNYHYHCPGSPDHQVPYGHGYP: the protein stability index is 2.41.
As to APWNYHYHCPGSPDHQVPYGHKYP, the protein stability index worked out at 2.73.
With APWNYHYHCPGSPDHQVPYGHPYP, the protein stability index is 2.68.
With AWWNYHYHCPGSPDHQVPYGHDYP, the protein stability index came out at 1.27.
On to ACWNYHYHCPGSPDHQVPYGHDYP, for which the protein stability index amounted to 2.15.
Consider AIWNYHYHCPGSPDHQVPYGHDYP, for which the protein stability index is 1.58.
Take ARWNYHYHCPGSPDHQVPYGHDYP: the protein stability index is 2.28.
Regarding AHWNYHYHCPGSPDHQVPYGHDYP, the protein stability index came out at 2.26.
Regarding APENYHYHCPGSPDHQVPYGHDYP, the protein stability index was determined as 4.48.
With APMNYHYHCPGSPDHQVPYGHDYP, the protein stability index was found to be 3.08.
Turning to APYNYHYHCPGSPDHQVPYGHDYP, the protein stability index was 3.04.
On to APFNYHYHCPGSPDHQVPYGHDYP, for which the protein stability index was determined as 2.22.
For the variant APCNYHYHCPGSPDHQVPYGHDYP, the protein stability index was determined as 4.01.
As for APGNYHYHCPGSPDHQVPYGHDYP, the figure is 3.43.
Turning to APNNYHYHCPGSPDHQVPYGHDYP, the protein stability index is 4.12.
Consider APSNYHYHCPGSPDHQVPYGHDYP, for which the protein stability index came to 3.95.
For the variant APWNYHSHCPGSPDHQVPYGHDYP, the protein stability index is 2.82.
As to APWNYHNHCPGSPDHQVPYGHDYP, the protein stability index was 3.4.
Consider APWNYHPHCPGSPDHQVPYGHDYP, for which the protein stability index was found to be 3.29.
APWNYHRHCPGSPDHQVPYGHDYP: the protein stability index came to 3.09.
For APWNYHWHCPGSPDHQVPYGHDYP, the protein stability index is 1.99.
For APWNYHMHCPGSPDHQVPYGHDYP, the protein stability index worked out at 1.5.
Take APWNYHQHCPGSPDHQVPYGHDYP: the protein stability index was determined as 3.83.
Take APWNYHIHCPGSPDHQVPYGHDYP: the protein stability index is 2.52.
As for APWNYHCHCPGSPDHQVPYGHDYP, the figure is 2.49.
Take APWNYHVHCPGSPDHQVPYGHDYP: the protein stability index worked out at 2.67.
On to APWNYHFHCPGSPDHQVPYGHDYP, for which the protein stability index was determined as 2.4.
Regarding APWAYHYHCPGSPDHQVPYGHDYP, the protein stability index came to 1.7.
For APWMYHYHCPGSPDHQVPYGHDYP, the protein stability index was found to be 2.78.
As for APWCYHYHCPGSPDHQVPYGHDYP, the figure is 2.17; as for APWDYHYHCPGSPDHQVPYGHDYP, 3.54.
As for APWSYHYHCPGSPDHQVPYGHDYP, the figure is 3.36; as for APWYYHYHCPGSPDHQVPYGHDYP, 2.54.
As to APWNYHYHCPGSEDHQVPYGHDYP, the protein stability index was 3.05.
As to APWNYHYHCPGSTDHQVPYGHDYP, the protein stability index is 2.24.
APWNYHYHCPGSMDHQVPYGHDYP: the protein stability index came out at 2.12.
As to APWNYHYHCPGSADHQVPYGHDYP, the protein stability index was 3.02.
Turning to APWNYHYHCPGSGDHQVPYGHDYP, the protein stability index turned out to be 2.05.
With APWNYHYHCPGSQDHQVPYGHDYP, the protein stability index stood at 2.5.
As for APWNYHYHCPGSDDHQVPYGHDYP, the figure is 2.4; as for APWNYHYHCFGSPDHQVPYGHDYP, 2.07; as for APWNYHYHCGGSPDHQVPYGHDYP, 1.71.
APWNYHYHCEGSPDHQVPYGHDYP: the protein stability index turned out to be 2.27.
As for APWNYHYHCNGSPDHQVPYGHDYP, the protein stability index amounted to 2.08.
Turning to APWNYHYHCSGSPDHQVPYGHDYP, the protein stability index was 2.08.
Take APWNYHYHCHGSPDHQVPYGHDYP: the protein stability index was 1.96.
As for APWNYHYHCMGSPDHQVPYGHDYP, the figure is 2.02; as for APWNYHYHCIGSPDHQVPYGHDYP, 1.66.
For the variant APWNYHYHCVGSPDHQVPYGHDYP, the protein stability index worked out at 2.09.
In the case of APWNDHYHCPGSPDHQVPYGHDYP, the protein stability index came out at 3.93.
As for APWNHHYHCPGSPDHQVPYGHDYP, the figure is 2.63; as for APWNFHYHCPGSPDHQVPYGHDYP, 2.19.
As for APWNAHYHCPGSPDHQVPYGHDYP, the figure is 3.65; as for APWNNHYHCPGSPDHQVPYGHDYP, 3.43; as for APWNQHYHCPGSPDHQVPYGHDYP, 2.94.
With APWNSHYHCPGSPDHQVPYGHDYP, the protein stability index was 3.47.
Consider APWNRHYHCPGSPDHQVPYGHDYP, for which the protein stability index is 3.04.
